Measurements: PMC7156710
pKd: −log10 of the molar value.

Tests used:
[1] = biological target: Sox2 full length (Homo sapiens) (UniProt P48431); test: fluorescence anisotropy; details: 10 mM Tris-HEPES pH 7.5, 135 mM KCl, 15 mM NaCl, 1 mM DTT, 8% Ficoll, 0.05% NP-40, 0.1 mg/mL BSA; 2 nM DNA or 3 nM RNA; room temperature (stated for …)
Sox2-HMG (Homo sapiens) = Sox2-HMG (Homo sapiens) (UniProt P48431); test: fluorescence anisotropy; details: 10 mM Tris-HEPES pH 7.5, 135 mM KCl, 15 mM NaCl, 1 mM DTT, 8% Ficoll, 0.05% NP-40, 0.1 mg/mL BSA; 2 nM DNA or 3 nM RNA; room temperature (stated for …)
Sox2-HMG (Homo sapiens), sequence (P48431 40-123): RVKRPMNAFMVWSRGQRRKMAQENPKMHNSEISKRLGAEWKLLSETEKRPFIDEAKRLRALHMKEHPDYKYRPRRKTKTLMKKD

[2] = biological target: Sox2-HMG (thrombin cleaved) (Homo sapiens) (UniProt P48431); test: FP; details: 10 mM Tris-HEPES pH 7.5, 8% Ficoll, 0.05% NP-40, 135 mM KCl, 15 mM NaCl, 1 mM DTT, 0.1 mg/mL BSA; 2 nM DNA or 3 nM RNA; low values mean tight binding
Sox2-HMG (thrombin cleaved) (Homo sapiens), sequence (P48431 other isoform, or with tags, fused parts or gaps): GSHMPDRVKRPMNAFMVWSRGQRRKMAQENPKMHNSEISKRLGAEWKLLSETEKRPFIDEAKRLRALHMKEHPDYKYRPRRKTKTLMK

[3] = biological target: Sox2 full length (Homo sapiens) (UniProt P48431); test: FP; details: 10 mM Tris-HEPES pH 7.5, 8% Ficoll, 0.05% NP-40, 135 mM KCl, 15 mM NaCl, 1 mM DTT, 0.1 mg/mL BSA; 2 nM DNA or 3 nM RNA; low values mean tight binding

Sox2 full length (Homo sapiens), sequence (P48431 whole entry): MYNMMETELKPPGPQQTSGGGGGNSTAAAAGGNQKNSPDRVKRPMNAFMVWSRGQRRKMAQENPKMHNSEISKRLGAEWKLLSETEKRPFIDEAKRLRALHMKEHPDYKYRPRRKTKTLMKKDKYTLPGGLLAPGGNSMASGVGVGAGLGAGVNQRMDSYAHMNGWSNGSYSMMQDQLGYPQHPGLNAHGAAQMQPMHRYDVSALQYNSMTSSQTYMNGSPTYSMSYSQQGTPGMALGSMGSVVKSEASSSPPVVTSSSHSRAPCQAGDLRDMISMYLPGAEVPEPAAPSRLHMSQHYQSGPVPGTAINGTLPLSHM

| Substance | binding signal (fold weaker than FGF4) [1] | pKd (Sox2-HMG (Homo sapiens)) | pKd [2] | pKd [3] |
| --- | --- | --- | --- | --- |
| dsDNA w/o binding site | > 200 | – | – | – |
| ssDNA with consensus site | > 200 | – | – | – |
| GGAAGAAGUGAAAUCACUAUAUUUAGAAACGAAUGCUACCAUCCCACCCCAACUACAUGUUCAGGUUAAAUGCGUGCACAUCCUGGUAGCUGGAACAUCUGUUUCUAGCUUGUUGUUCCUCUUGGCUGCUUUUCAAUUGGAUUUCCUCGAGCAGGUCCCAGGCUUGUCACUGCAGCCAGGGUCUGUUAACCAUCACCACUGGUUCUACAUUAAGUAGGAGGUUCAGGGCUAAGCUAAUAACUCGCCUGCCUUUCUGACUGAUCACAGUGAUGUUCGCCGUGGCCACUUAUCAUGCGGGCUCCUUUGGGAGGGUGCUCUUCUUUGUCUGUACCUCUGGGUGGAAAGGGCGAAUUC [ES2 lncRNA 1-354] | – | 7.59 | 7.59 | 7.76 |
